Measured values taken from paper PMC8219681, “Inhibition of MRN activity by a telomere protein motif” (Nature Communications, 2021).

T1: Rad50S (S. cerevisiae Rad50-K81I, FLAG-tagged at the C terminus) (S. cerevisiae, UniProt P12753 1-1312, K81I)
T1 construct: Rad50, Saccharomyces cerevisiae, K81I
T1 sequence (looked up): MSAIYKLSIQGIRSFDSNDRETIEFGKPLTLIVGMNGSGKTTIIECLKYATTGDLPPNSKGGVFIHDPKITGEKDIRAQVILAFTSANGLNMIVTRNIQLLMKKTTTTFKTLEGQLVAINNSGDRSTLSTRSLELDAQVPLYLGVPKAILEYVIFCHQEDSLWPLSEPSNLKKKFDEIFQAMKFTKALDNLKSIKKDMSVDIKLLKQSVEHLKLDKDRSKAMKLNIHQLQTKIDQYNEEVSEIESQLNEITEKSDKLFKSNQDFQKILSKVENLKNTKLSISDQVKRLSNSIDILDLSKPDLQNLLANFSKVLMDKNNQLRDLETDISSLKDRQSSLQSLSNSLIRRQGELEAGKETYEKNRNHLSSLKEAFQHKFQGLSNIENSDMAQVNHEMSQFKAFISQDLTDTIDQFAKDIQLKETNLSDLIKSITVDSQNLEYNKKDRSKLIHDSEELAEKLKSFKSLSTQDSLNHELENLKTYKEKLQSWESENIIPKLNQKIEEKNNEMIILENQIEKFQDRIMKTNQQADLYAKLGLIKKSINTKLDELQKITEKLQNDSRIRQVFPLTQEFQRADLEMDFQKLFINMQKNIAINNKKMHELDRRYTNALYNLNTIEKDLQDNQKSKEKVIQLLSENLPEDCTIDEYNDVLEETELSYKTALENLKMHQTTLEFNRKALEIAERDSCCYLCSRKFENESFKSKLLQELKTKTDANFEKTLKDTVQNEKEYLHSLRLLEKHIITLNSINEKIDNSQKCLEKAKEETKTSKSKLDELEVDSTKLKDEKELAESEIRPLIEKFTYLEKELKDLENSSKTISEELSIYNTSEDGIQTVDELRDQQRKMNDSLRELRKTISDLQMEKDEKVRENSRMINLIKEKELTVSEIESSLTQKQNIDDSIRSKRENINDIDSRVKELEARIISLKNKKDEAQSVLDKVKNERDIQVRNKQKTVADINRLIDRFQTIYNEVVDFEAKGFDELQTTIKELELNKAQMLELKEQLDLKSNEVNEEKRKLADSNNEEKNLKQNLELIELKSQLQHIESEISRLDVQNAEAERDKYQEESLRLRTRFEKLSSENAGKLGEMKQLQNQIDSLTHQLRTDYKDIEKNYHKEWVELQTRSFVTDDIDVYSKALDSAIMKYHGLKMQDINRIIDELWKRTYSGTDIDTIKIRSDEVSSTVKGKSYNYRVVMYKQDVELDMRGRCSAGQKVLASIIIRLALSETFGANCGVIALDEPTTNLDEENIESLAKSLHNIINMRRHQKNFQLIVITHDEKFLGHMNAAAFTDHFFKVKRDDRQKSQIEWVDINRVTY

T2: Mre11 (S. cerevisiae, his-tagged at the C terminus) (S. cerevisiae, UniProt P32829 1-692)
T2 construct: Mre11, Saccharomyces cerevisiae; also called Mre11-his; not shown: His tag, C-terminal, kept
T2 sequence (looked up): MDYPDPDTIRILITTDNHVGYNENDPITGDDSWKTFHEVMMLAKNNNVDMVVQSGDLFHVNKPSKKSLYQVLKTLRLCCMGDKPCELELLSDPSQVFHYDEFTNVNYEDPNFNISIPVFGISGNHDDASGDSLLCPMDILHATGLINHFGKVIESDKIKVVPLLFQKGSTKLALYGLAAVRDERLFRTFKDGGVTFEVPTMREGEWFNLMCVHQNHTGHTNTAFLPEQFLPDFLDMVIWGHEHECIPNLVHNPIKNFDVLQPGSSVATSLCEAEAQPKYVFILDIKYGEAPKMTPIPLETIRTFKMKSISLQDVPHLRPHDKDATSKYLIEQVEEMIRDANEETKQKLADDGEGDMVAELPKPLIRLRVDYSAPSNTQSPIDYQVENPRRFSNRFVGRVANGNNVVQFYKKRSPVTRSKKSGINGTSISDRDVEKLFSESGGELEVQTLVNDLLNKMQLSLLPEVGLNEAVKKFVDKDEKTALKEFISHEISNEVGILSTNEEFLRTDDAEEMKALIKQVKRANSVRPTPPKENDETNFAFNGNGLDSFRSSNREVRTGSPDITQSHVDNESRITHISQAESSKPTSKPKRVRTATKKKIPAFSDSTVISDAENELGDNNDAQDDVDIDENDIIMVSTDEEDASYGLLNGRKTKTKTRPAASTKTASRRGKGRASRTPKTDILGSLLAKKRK


Assays:
[1] = molecular target: T1, Rad50S (S. cerevisiae Rad50-K81I, …); assay: pull-down; MBP-Rif2 or MBP-Rif2-min immobilised on amylose resin, washed with 1 M NaCl buffer then 150 mM NaCl; 750 ng Rad50 or Rad50-K81I added for 1 h at 4 °C in wash buffer with 150 mM NaCl; Western blot with anti-Rad50; conditions: both partners purified
[2] = molecular target: T2, Mre11 (S. cerevisiae, his-tagged at the …); assay: pull-down; MBP-Rif2 or MBP-Rif2-min (~5 ug, from Sf9 lysate) immobilised on amylose resin and washed; 1 ug Mre11, 500 ng Rad50 or 1 ug Xrs2 added for 1 h in 50 mM Tris-HCl pH 7.5, 200 mM NaCl, 0.2% NP40, 2 mM EDTA; eluted with 20 mM maltose; Western blot; conditions: both partners purified

binding result [1] | binding result [2] | Binder
binds | binds | MBP-Rif2 (S. cerevisiae Rif2, wild type) (natural protein, UniProt Q06208 1-395, looked up, Rif2, Saccharomyces cerevisiae, full length, expressed from the vector pFB-MBP-Rif2-his; MBP was cleaved with PreScission protease only after elution from the resin; N-terminal place of MBP is read from the construct's name MBP-Rif2-his; also called ScRif2; not shown: MBP, N-terminal, kept) MEHVDSDFAPIRRSKKVVDSDKIVKAISDDLEQKNFTVLRKLNLVPIKKSVSSPKVCKPSPVKERVDHVFYQKFKSMALQELGTNYLSISYVPSLSKFLSKNLRSMKNCIVFFDKVEHIHQYAGIDRAVSETLSLVDINVVIIEMNDYLMKEGIQSSKSKECIESMGQASYSGQLDFEASEKPSNHTSDLMMMVMRKINNDESIDHIVYFKFEQLDKLSTSTIIEPSKLTEFINVLSVLEKSNNIAFKVLIYSNNVSISSLLSTSLKKKLNTKYTVFEMPILTCAQEQEYLKKMIKFTFDSGSKLLQSYNSLVTCQLNNKESNLAIFFEFLKVFPHPFTYLFNAYTEIIVQSRTFDELLDKIRNRLTIKNYPHSAYNFKKNQRLPLKLTRKVHDR
binds | binds | MBP-Rif2-min (S. cerevisiae Rif2 F8E P10N) (natural protein, UniProt Q06208 1-395, looked up, Rif2, Saccharomyces cerevisiae, full length, F8E P10N, expressed from the vector pFB-MBP-Rif2-min-his; MBP was cleaved with PreScission protease only after elution from the resin; N-terminal place of MBP is read from the construct's name; also called mutant Rif2; not shown: MBP, N-terminal, kept) MEHVDSDEANIRRSKKVVDSDKIVKAISDDLEQKNFTVLRKLNLVPIKKSVSSPKVCKPSPVKERVDHVFYQKFKSMALQELGTNYLSISYVPSLSKFLSKNLRSMKNCIVFFDKVEHIHQYAGIDRAVSETLSLVDINVVIIEMNDYLMKEGIQSSKSKECIESMGQASYSGQLDFEASEKPSNHTSDLMMMVMRKINNDESIDHIVYFKFEQLDKLSTSTIIEPSKLTEFINVLSVLEKSNNIAFKVLIYSNNVSISSLLSTSLKKKLNTKYTVFEMPILTCAQEQEYLKKMIKFTFDSGSKLLQSYNSLVTCQLNNKESNLAIFFEFLKVFPHPFTYLFNAYTEIIVQSRTFDELLDKIRNRLTIKNYPHSAYNFKKNQRLPLKLTRKVHDR
